# Reference: patent US7939057B2, “Methods and compositions for modulating the mobilization of stem cells” (Mount Sinai School of Medicine, priority 2006, dated 2011)
# B1: G-CSF: recombinant human G-CSF (Filgrastim, Amgen), hematopoietic cytokine used to elicit HSPC mobilization (protein, UniProt P09919 31-207, looked up)
# Granulocyte …: TPLGPASSLPQSFLLKCLEQVRKIQGDGAALQEKLVSECATYKLCHPEELVLLGHSLGIPWAPLSSCPSQALQLAGCLSQLHSGLFLYQGLLQALEGISPELGPTLDTLQLDVADFATTIWQQMEELGMAPALQPTQGAMPAFASAFQRRAGGVLVASHLQSFLEVSYRVLRHLAQP
# modifications: filgrastim
# notes: recombinant human G-CSF (Filgrastim, Amgen), hematopoietic cytokine used to elicit HSPC mobilization
# Experiments:
# [1] = tested on: NE; assay: NE content in heart and bone after G-CSF (HPLC); format: in vivo, C57BL/6 mice
# Experimental: Mice were sacrificed and hearts were rapidly removed, weighed, frozen in liquid nitrogen. Tissues were homogenized in HPLC solvent (0.1M TCA, which contains 10^−2 M sodium acetate, 10^−4 M EDTA and 10.5% methanol, pH 3.8). Hindlimb long bones were harvested, weighted, frozen in liquid nitrogen. Pooled bones were crushed using a bessman tissue pulverizer (Spectrum Laboratories) pre-chilled in a liquid nitrogen bath. Pulverized tissues were homogenized (620 mg/ml) in 0.4N HClO4 containing 0.84 mg/mL EDTA and 12.5 μL of 4% sodium pyrosulfite solution. Bone catecholamines were extracted using solid Al203 and then desorbed from the Al203 using 0.1 N acetic acid. NE levels were determined by HPLC at the Neurochemistry Core Lab, Vanderbilt University's Center for Molecular Neuroscience Research (Nashville, Tenn.).
# [2] = tested on: CXCL12; assay: CXCL12α and CXCL12β mRNA by Q-PCR in BM and bone after G-CSF; format: in vivo, mice
# Experimental: Methods, primers and PCR conditions are available in Table S3. Briefly, total RNA was extracted from BMNC using TRIzol solution (Invitrogen, Carlsbad, Calif.). The bone carcass was then immersed in liquid nitrogen, and pulverized into powder followed by RNA extraction with TRIzol. Total RNA (1 μg) was treated with DNaseI (Invitrogen, Carlsbad, Calif.), and reverse transcribed using first strand cDNA synthesis with random primers (Promega, Madison, Wis.). Q-PCR was performed using SYBR Green (Molecular Probes) on an ABI PRISM 7900HT Sequence Detection System (Applied Biosystems, Foster city, CA). All experiments were done in triplicate and normalized to GAPDH.
molecule,measurement,setting,value
B1,bone NE levels,[1]; 3 h after G-CSF administration (250 μg/kg s.c.),dramatic reduction
same,cardiac NE levels,[1]; single dose of G-CSF (250 μg/kg s.c.),slightly reduced
same,CXCL12 mRNA levels in bone,"[2]; after G-CSF treatment, p<0.05 for CXCL12α, p=0.06 for CXCL12β",moderately decreased
same,mRNA expression of both CXCL12 isoforms in BM,"[2]; after G-CSF, Cgt−/− and normal littermates",profoundly decreased
